Results on one molecule are retold here after patent US20120269821A1 (published 2012).

Experiment [1] addresses ZM197M.PB7 envelope (HIV-1). Briefly: cell-based or functional assay.
Experiment [2] concerns the target CAP206.1.B5 envelope (HIV-1). Put plainly: cell-based or functional assay.
Experiment [3] has as its target QH0692.42 envelope (HIV-1). Put plainly: cell-based or functional assay.
The target in experiment [4] is Du422.1 envelope (HIV-1). Put plainly: cell-based or functional assay.
Experiment [5] addresses Du156.12 envelope (HIV-1). Put plainly: cell-based or functional assay.
Experiment [6] concerns the target SC422661.8 envelope (HIV-1). Briefly: cell-based or functional assay.
For experiment [7], the target named is ZM197M.PB7 envelope (HIV-1). Briefly: cell-based or functional assay. Set-up: unit not given beside the values.
Experiment [8] addresses CAP206.1.B5 envelope (HIV-1). Briefly: cell-based or functional assay. Set-up: unit not given beside the values.
For experiment [9], the target named is QH0692.42 envelope (HIV-1). Briefly: cell-based or functional assay. Details: unit not given beside the values.
The target of experiment [10] is Du422.1 envelope (HIV-1). Put plainly: cell-based or functional assay. Set-up: unit not given beside the values.
For experiment [11], the target named is Du156.12 envelope (HIV-1). Put plainly: cell-based or functional assay. Set-up: unit not given beside the values.
For experiment [12], the target named is TRO.11 envelope (HIV-1). Briefly: cell-based or functional assay. Details: unit not given beside the values.
For experiment [13], the target named is T1, MOJO gp140 (HIV-1).
T1 construct: domain: gp140
Put plainly: antigen panel (luminex assay per paragraph 163); unit not given.

For experiment [14], the target named is hepatitis E2 protein (Hepatitis C). The description is as above.
Experiment [15] deals with HIV-1 gp41 (HIV-1). The description is as above.

B1: CAP206-CH12 (antibody, V domains shown)
VH: QVQLVQSGAEVKKPGSSVKLSCKASGGTFGSYSVTWVRQAPGQTFEWVGRIVPWVGVPNYAPKFQGRVTITADKSSTVYMELTSLRFEDTAVYYCATAYEASGLSYYYYMDDWGKGTTVTVSS
VL: EIVLTQSPGTLSLSPGERATLSCRASQSVTSSYLAWFRHKPGQAPRLLIYGASYRGTGIPDRISGSGSGTDFTLTISRLEPEDFAVYYCQHYGGSPGMYTFGQGTRLEIK
notes: also called mAb 2311; 2311
Turning to B1, the “IC50 in TZM-bl/FcγRI cells” value in experiment [1] was 300 µg/mL; in experiment [2], 700 µg/mL; in experiment [3], above 32000 µg/mL; in [4] it was 2700 µg/mL; in experiment [5], 600 µg/mL; in experiment [6], 400 µg/mL. Further, the “IC50 in TZM-bl cells” value in experiment [7] is 13; in [8], 5.9; in [9], above 32; in experiment [10], above 32; in experiment [11], 14.9; in experiment [12], 17.5. For the same molecule, the reactivity in experiment [13] was 2910; in experiment [14], 855; in experiment [15], 1980.
